How the values were obtained:
Assay in all cases: SPR
[1] = target: recombinant GP38 of CCHFV Kosova-Hoti (Crimean-Congo hemorrhagic fever virus, …, UniProt B2BSL7, strain)
[2] = target: recombinant GP38 of CCHFV 200406546-Turkey (Crimean-Congo hemorrhagic fever virus, …, UniProt A0A0U2SQZ0, strain)
[3] = target: recombinant GP38 of CCHFV Oman-199809166 (Crimean-Congo hemorrhagic fever virus, …, UniProt A0A0U3C6Q7, strain)

Measured: Kd

B1: ADI-58048 IgG (antibody, V domains shown)
VH: QLQLQESGPGLVKPSETLSLTCTVSGGSITTSHYYWGWIRQPPGKGLEWVGSMYYSGGIYYNPSLKGRVTISVDTSKNQFSLKLSSVTAADTAVYYCALADAPDDAFDIWGQGTMVTVSS
VL: DIQMTQSPSSLSAFVGDRVTITCRASQSISSYLNWYQQKPGKAPKLLIYAASTLQSGVPSRFSGSGSGTDFTLTISSLQSEDFATYYCQESYSIPFTFGPGTKVDIK
< 0.398 nM: all assays above

From PMC11346345 (Cell reports, 2024)
